Source: PMC9548408

Experiments:
[1] = target: human lysosomal α-L-fucosidase (FucA1) (human) (UniProt P04066); experiment: SEC-MALS; SEC-MALLS, Superdex S200 10/300, 20 mM HEPES pH 7.4, 200 mM NaCl, room temperature (20 ± 2°C), 100 μL injected at 0.8 mg/mL
[2] = target: human lysosomal α-L-fucosidase (FucA1) (human) (UniProt P04066); experiment: cryo-EM structure; single-particle cryo-EM, 200 kV Glacios, D2 symmetry imposed; unliganded FucA1 at 2 mg/mL, and FucA1 at 1.5 mg/mL with 1 mM deoxyfuconojirimycin in 60 mM phosphate citrate pH 4.5

stoichiometry N [1]: 4
stoichiometry N [2]: 4
Substance: human lysosomal α-L-fucosidase (FucA1) (from UniProt P04066 32-466) (enzyme)
